This is an account of results in patent publication US20240124576A1 (SHANGHAI JEMINCARE PHARMACEUTICAL, published 2024).

Broadly, the Kd is the concentration at which binding is half-saturated. What is called koff is the rate constant with which the complex falls apart. Usually kon stands for the rate constant with which the complex forms.

Positions count from the first letter of the chain named.

The chains are these.
B1: Ab6, purified Siglec-15 binding protein in the form of IgG1 (antibody, V domains shown)
VH: EVQLLESGGGLVQPGGSLRLSCAASGFTFSSYAMSWVRQAPGKGLEWVSTIWGGGGSTYYADSVKGRFTISRDNSKNTLYLQMNSLRAEDTAVYYCAKAIGSSWYSDAFDLWGQGTMVTVSS
VL: DIQMTQSPSSVSASVGDRVTITCRASQDISSWLAWYQQKPGKAPKLLIYVASSLQSGVPSRFSGSGSGTDFTLTISSLQPEDFATYYCQQSYSIPYTFGQGTKLEIKR
notes: Expressed in ExpiCHO cells in the form of IgG1
B2: Ab3, purified Siglec-15 binding protein in the form of IgG1 (antibody, V domains shown)
VH: B1 VH with W52T, G56E
VL: B1 VL
notes: as for B1
B3: Ab2, purified Siglec-15 binding protein in the form of IgG1 (antibody, V domains shown)
VH: B1 VH with F29S, W52S
VL: B1 VL
notes: as for B1
B4: Ab7, purified Siglec-15 binding protein in the form of IgG1 (antibody, V domains shown)
VH: B1 VH with W52S, G56V, S57Y
VL: B1 VL
notes: as for B1
B5: Ab5, purified Siglec-15 binding protein in the form of IgG1 (antibody, V domains shown)
VH: B1 VH with W52Y
VL: B1 VL
notes: as for B1
B6: Ab13, purified Siglec-15 binding protein in the form of IgG1 (antibody, V domains shown)
VH: B1 VH with W52T, G56E
VL: B1 VL with S53F, L54E, Q55H, S56R
notes: as for B1
B7: Ab0 parent sequence displayed on yeast in the form of Fab (Fab, V domains shown)
VH: B1 VH with W52S
VL: DIQMTQSPSSVSASVGDRVTITCRASQDISSWLAWYQQKPGKAPKLLIYVASSLQSGVPSRFSGSGSGTDFTLTISSLQPEDFATYYCQQSYSIPYTFGQGTKLEIK
B8: Ab13 (clone YC45H4) displayed on yeast in the form of Fab (Fab, V domains shown)
VH: B1 VH with W52T, G56E
VL: B7 VL with S53F, L54E, Q55H, S56R
B9: Ab6 (clone YC33G4) displayed on yeast in the form of Fab (Fab, V domains shown)
VH: B1 VH
VL: B7 VL
B10: Ab2 (clone YC32A6) displayed on yeast in the form of Fab (Fab, V domains shown)
VH: B1 VH with F29S, W52S
VL: B7 VL
B11: Ab3 (clone YC33B2) displayed on yeast in the form of Fab (Fab, V domains shown)
VH: B1 VH with W52T, G56E
VL: B7 VL
B12: Ab7 (clone YC33D5) displayed on yeast in the form of Fab (Fab, V domains shown)
VH: B1 VH with W52S, G56V, S57Y
VL: B7 VL
B13: Ab15 (clone YC44F5) displayed on yeast in the form of Fab (Fab, V domains shown)
VH: B1 VH with W52T, G56E
VL: B7 VL with S53Y, L54I, Q55H
B14: Ab5 (clone YC33D1) displayed on yeast in the form of Fab (Fab, V domains shown)
VH: B1 VH with W52Y
VL: B7 VL
B15: Ab9 (clone YC29B3) displayed on yeast in the form of Fab (Fab, V domains shown)
VH: B1 VH with W52S
VL: B7 VL with S31D
B16: Ab0, purified Siglec-15 binding protein in the form of IgG1 (antibody, V domains shown)
VH: B1 VH with W52S
VL: B1 VL

The first assay has as its target T1, human Siglec-15 (Acro, Cat. No. SG5-H52H3) (human, UniProt Q6ZMC9 20-263).
T1 construct: Bought reagent used as the analyte in the Octet assay; also called antigen
T1 sequence (looked up): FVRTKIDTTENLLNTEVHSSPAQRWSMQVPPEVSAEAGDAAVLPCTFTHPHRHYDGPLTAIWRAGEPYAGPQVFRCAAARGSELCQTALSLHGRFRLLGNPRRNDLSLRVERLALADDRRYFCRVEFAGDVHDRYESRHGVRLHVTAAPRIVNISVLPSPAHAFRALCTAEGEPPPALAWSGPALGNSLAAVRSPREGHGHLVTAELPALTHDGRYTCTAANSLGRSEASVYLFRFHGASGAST
Nature of the assay: BLI (Octet RED96e), antibody captured on AHC sensor, 30 nM antigen, 1:1 fit; second assay. Also on record: Response value: unit not given here. As to the method:
(§1) Affinity of Siglec-15 binding protein of the present application to human Siglec-15 (Acro, Cat. No.: SG5-H52H3) was determined using Octet RED96e (Fortebio), both of the antigen and the Siglec-15 binding protein of the present application were diluted with 1×PBST (1×PBS: Sangon, B548117-0500; 0.02% Tween 20: Sigma-aldrich, P1379). The antigen is used at a concentration of 30 nM and the Siglec-15 binding protein of the present application is used at a concentration of 33.3 nM.
(§2) First, a sample was added to a 96-well plate (Greiner bio-one, 655209) in a system of 200 μL/well. Software parameters were then set, the plate temperature was set to 30° C., and the frequency at which the standard kinetic signal was collected was 5.0 Hz. Next, the AHC sensor (Fortébio, Cat. No.: 18-0015) was pre-wetted with 1×PBST for 10 min, then the sample was loaded on the machine for detection, with each cycle containing the following steps: 1) immersing the sample in buffer for 60 s; 2) detecting whether the antigen has non-specific binding to the sensor; 3) regenerating in a 10 mM glycine solution at pH 1.7; 4) immersing in buffer for 60 s; 5) immobilizing the Siglec-15 binding protein of the present application on the sensor for 20 s; 6) immersing the sensor in buffer for 180 s; 7) binding the antigen to the Siglec-15 binding protein of the present application for 180 s; 8) dissociating the antigen with Siglec-15 binding protein of the present application for 10 min; and 9) regenerating the sensor.
(§3) The equilibrium dissociation constant (KD) of the Siglec-15 binding protein of the present application was calculated by determining the binding rate constant (kon) and dissociation rate constant (kdis) of the antigen-Siglec-15 binding protein of the present application in a 1:1 binding manner using Data Analysis 12.0 software fromx Fortebio.
A general note: Biolayer interferometry detects binding as a change in optical thickness at a sensor tip.
For B1, binding was put at a Kd of 0.00843 nM, the Response value is 0.285, the koff is 2.87e-06 s⁻¹ and the kon is 340000 M⁻¹ s⁻¹.
For B2, the Kd came to 0.0444 nM, the Response value worked out at 0.288, the koff was determined as 1.95e-05 s⁻¹ and the kon worked out at 440000 M⁻¹ s⁻¹.
For B3, the Kd stood at 0.155 nM, the Response value was 0.262, the koff stood at 6.96e-05 s⁻¹ and the kon is 448000 M⁻¹ s⁻¹.
On the same counts, the results for B4 are 0.00508 nM, 0.284, 1.44e-06 s⁻¹ and 282000 M⁻¹ s⁻¹.
On the same counts, the results for B5 are 0.0076 nM, 0.277, 2.57e-06 s⁻¹ and 338000 M⁻¹ s⁻¹.
In the same order, the values of B6 are 0.0681 nM, 0.305, 3.79e-05 s⁻¹ and 556000 M⁻¹ s⁻¹.

The next assay addresses T2, biotinylated human Siglec-15 protein (Acrobiosystems, Cat. No. SG5-H82E9) (human, UniProt Q6ZMC9 20-263, biotinylated).
T2 construct: Bought reagent; also called HS-15 Biotin; human S-15 Biotin
T2 sequence (looked up): T1 sequence (looked up)
Nature of the assay: flow cytometry of yeast-displayed Fab, 1 nM HS-15 Biotin 30 min, 2 h wash. As to the method:
After sequencing analysis, the single clone with single sequence was identified by flow cytometry staining, incubated with 1 nM HS-15 Biotin for 30 min, respectively, and washed with 1 mL 1×PBSA for 2 h at room temperature; after flow cytometry analysis, the fluorescence intensity of different clones binding to antigen was compared.
On to B7, for which the “Binding MFI” value was determined as 52.2 MFI and the “Binding force (Displaying MFI/Binding MFI) *10000” value amounted to 219.
For the molecule B8, the “Binding MFI” value turned out to be 109 MFI and the “Binding force (Displaying MFI/Binding MFI) *10000” value turned out to be 465.
B9: the “Binding MFI” value was determined as 94.2 MFI and the “Binding force (Displaying MFI/Binding MFI) *10000” value came out at 411.
On to B10, for which the “Binding MFI” value came to 133 MFI and the “Binding force (Displaying MFI/Binding MFI) *10000” value was 441.
On the same counts, the results for B11 are 188 MFI and 658.
With B12, the “Binding MFI” value is 113 MFI and the “Binding force (Displaying MFI/Binding MFI) *10000” value worked out at 455.
In the same order, the values of B13 are 105 MFI and 409.
B14: the “Binding MFI” value came out at 135 MFI and the “Binding force (Displaying MFI/Binding MFI) *10000” value worked out at 480.
B15: the “Binding MFI” value turned out to be 131 MFI and the “Binding force (Displaying MFI/Binding MFI) *10000” value is 289.

The target in another assay is T1, human Siglec-15 (Acro, Cat. No. …). Nature of the assay: BLI (Octet RED96e), antibody captured on AHC sensor, 30 nM antigen, 1:1 fit; first assay. The procedure:
as §1, §2, §3
B16 showed a dissociation constant Kd of 0.109 nM, a koff of 3.24e-05 s⁻¹ and a kon of 298000 M⁻¹ s⁻¹.
